From patent publication US20250289893A1 (OXFORD UNIVERSITY INNOVATION, published 2025)

Tests used:
[1] = molecular target: Chinese variant CD1a protein (human) (UniProt P06126); test: ELISA, 1 µg/ml antibody
[2] = molecular target: Chinese variant CD1a protein (human) (UniProt P06126); test: ELISA, 10 µg/ml antibody
[3] = molecular target: Chinese variant CD1a protein (human) (UniProt P06126); test: ELISA, 0.1 µg/ml antibody
[4] = molecular target: Chinese variant CD1a protein (human) (UniProt P06126); test: ELISA, 0.01 µg/ml antibody
[5] = molecular target: T1, Cynomolgus monkey CD1a protein (Cynomolgus monkey); test: ELISA, 1 µg/ml antibody
T1 chain: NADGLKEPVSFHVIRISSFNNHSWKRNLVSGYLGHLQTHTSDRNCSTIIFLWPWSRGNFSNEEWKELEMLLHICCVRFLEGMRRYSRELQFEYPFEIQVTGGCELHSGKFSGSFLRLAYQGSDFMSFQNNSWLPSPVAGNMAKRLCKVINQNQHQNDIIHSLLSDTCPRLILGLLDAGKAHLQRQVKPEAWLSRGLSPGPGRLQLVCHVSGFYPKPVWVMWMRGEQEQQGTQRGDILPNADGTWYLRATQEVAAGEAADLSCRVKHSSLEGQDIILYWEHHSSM

[6] = molecular target: T1, Cynomolgus monkey CD1a protein; test: ELISA, 10 µg/ml antibody
[7] = molecular target: T2, human CD1b expressed on HEK-293 cells (human, UniProt P29016 18-333; P61769 21-119); test: flow cytometry, HEK-293 cells
T2 construct: also called HEK - CD1b
Experimental: (§1) CD1a-specific antibodies were identified by flow cytometry. Binding to proteins expressed on HEK, C1R and MOLT4 cell lines was assessed. […] The C1R-CD1a, C1R-empty vector and MOLT4 cell lines were washed in 1×PBS on the day required. All cell lines were counted and resuspended in 1×PBS and then stained for 30 minutes at 37° C. using the DiI or DiO cellular stains (Invitrogen). Cells were washed with flow cytometry buffer (1% bovine serum albumin, 2 mM EDTA and 0.1% sodium azide in PBS) before mixing 2 DiI-stained and DiO-stained populations together. The cells (20 μl/well) were then added to dilutions of antibody sample (B cell culture supernatant, TAP supernatant, clone supernatant, purified antibody solution) (20 μl/well) and incubated for 1 hour at 4° C. in a flow cytometry assay plate, before being washed with flow cytometry buffer. 10 μl/well of Alexafluor647-conjugated goat anti-species IgG Fc-specific F(ab′)2 fragment (Jackson ImmunoResearch), diluted 1:2500 in flow cytometry buffer, was added and incubated at 4° C. for 30 minutes, followed by washing with wash buffer. The fluorescence intensity was then measured on an iQue screener PLUS.

[8] = molecular target: T3, human CD1c expressed on HEK-293 cells (human, UniProt P29017 18-333; P61769 21-119); test: flow cytometry, HEK-293 cells
T3 construct: also called HEK - CD1c
Experimental: as §1

[9] = molecular target: T4, human CD1d expressed on HEK-293 cells (human, UniProt P15813 20-335; P61769 21-119); test: flow cytometry, HEK-293 cells
T4 construct: also called HEK - CD1d
Experimental: as §1

[10] = molecular target: T5, human CD1a protein (pool B) (human, UniProt P06126 18-295, limits assumed); test: ELISA, 0.1 µg/ml antibody
T5 construct: Recombinant protein of the ELISA (coated) and the Biacore T200 titration; whole entry named; also called human CD1a pool B; full length CD1a
T5 sequence (P06126 18-295 limits assumed): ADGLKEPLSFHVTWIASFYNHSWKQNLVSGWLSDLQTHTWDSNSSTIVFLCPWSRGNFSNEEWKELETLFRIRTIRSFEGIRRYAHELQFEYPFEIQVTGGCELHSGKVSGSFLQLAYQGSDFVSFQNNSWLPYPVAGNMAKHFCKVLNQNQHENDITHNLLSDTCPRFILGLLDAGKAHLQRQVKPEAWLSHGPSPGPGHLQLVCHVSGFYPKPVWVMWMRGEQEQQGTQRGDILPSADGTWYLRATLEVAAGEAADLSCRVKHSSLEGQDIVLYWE
Experimental: (§2) CD1a-specific antibodies were identified by ELISA. […] 20 μl/well of peroxidase-conjugated goat anti-species IgG Fc-specific F(ab′)2 fragment (Jackson ImmunoResearch), diluted 1:5000 in block buffer was added and incubated at room temperature for 1 hour, followed by washing with wash buffer.
The antibodies were titrated through a dilution series and compared to a control rabbit IgG antibody.

[11] = molecular target: chimeric CD1a pool B protein [human CD1a lipid binding domain, mouse CD1d Ig domain] (human; mouse, UniProt P06126 18-201; P11609 205-297, limits assumed); test: ELISA, 0.1 µg/ml antibody
Chain of chimeric CD1a pool B protein [human CD1a lipid binding domain, mouse CD1d Ig domain] (P06126 other isoform, or with tags, fused parts or gaps mutant limits assumed): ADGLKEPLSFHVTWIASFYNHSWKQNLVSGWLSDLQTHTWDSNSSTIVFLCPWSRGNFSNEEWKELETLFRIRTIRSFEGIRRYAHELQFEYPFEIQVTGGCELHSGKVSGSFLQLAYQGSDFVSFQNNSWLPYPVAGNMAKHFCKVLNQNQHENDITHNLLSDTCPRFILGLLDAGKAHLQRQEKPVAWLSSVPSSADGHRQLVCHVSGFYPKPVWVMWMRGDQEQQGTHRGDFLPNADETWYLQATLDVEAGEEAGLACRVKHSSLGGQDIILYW
Experimental: as §2
The antibodies were titrated through a dilution series and compared to a control rabbit IgG antibody. […] Data shown for purified antibodies.

[12] = molecular target: T1, Cynomolgus monkey CD1a protein; test: ELISA, 0.1 µg/ml antibody
[13] = molecular target: T1, Cynomolgus monkey CD1a protein; test: ELISA, 0.01 µg/ml antibody
[14] = molecular target: T6, human CD1a expressed on cells (human, UniProt P06126 17-327; P61769 21-119); test: flow cytometry, C1R cells, 1 µg/ml antibody
T6 construct: also called HEK - CD1a; C1R - CD1a
Experimental: (§3) Binding to proteins expressed on HEK, C1R and MOLT4 cell lines was assessed. […] The C1R-CD1a, C1R-empty vector and MOLT4 cell lines were washed in 1×PBS on the day required. All cell lines were counted and resuspended in 1×PBS and then stained for 30 minutes at 37° C. using the DiI or DiO cellular stains (Invitrogen). Cells were washed with flow cytometry buffer (1% bovine serum albumin, 2 mM EDTA and 0.1% sodium azide in PBS) before mixing 2 DiI-stained and DiO-stained populations together. The cells (20 μl/well) were then added to dilutions of antibody sample (B cell culture supernatant, TAP supernatant, clone supernatant, purified antibody solution) (20 μl/well) and incubated for 1 hour at 4° C. in a flow cytometry assay plate, before being washed with flow cytometry buffer. 10 μl/well of Alexafluor647-conjugated goat anti-species IgG Fc-specific F(ab′)2 fragment (Jackson ImmunoResearch), diluted 1:2500 in flow cytometry buffer, was added and incubated at 4° C. for 30 minutes, followed by washing with wash buffer. The fluorescence intensity was then measured on an iQue screener PLUS.
(§4) Binding was quantified as fold change in fluorescence intensity geomean over background assessed by flow cytometry.

[15] = molecular target: T6, human CD1a expressed on cells; test: flow cytometry, C1R cells, 10 µg/ml antibody
Experimental: as §3, §4

[16] = molecular target: T6, human CD1a expressed on cells; test: flow cytometry, C1R cells, 0.1 µg/ml antibody
Experimental: as §3, §4

[17] = molecular target: T6, human CD1a expressed on cells; test: flow cytometry, MOLT4 cells, 1 µg/ml antibody
Experimental: as §1, §4

[18] = molecular target: T6, human CD1a expressed on cells; test: flow cytometry, MOLT4 cells, 10 µg/ml antibody
Experimental: as §1, §4

[19] = molecular target: T6, human CD1a expressed on cells; test: flow cytometry, HEK-293 cells, 1 µg/ml antibody
Experimental: as §3
(§5) HEK-293 cells were transiently transfected with human CD1a, CD1b, CD1c or CD1d and co-transfected with human β2M.

[20] = molecular target: T6, human CD1a expressed on cells; test: flow cytometry, MOLT4 cells, 0.1 µg/ml antibody
Experimental: as §1, §4

[21] = molecular target: T7, Cynomolgus monkey CD1a expressed on HEK-293 cells (Cynomolgus monkey, UniProt A0A2K5VQ68 17-326); test: flow cytometry, HEK-293 cells, 1 µg/ml antibody
T7 sequence (A0A2K5VQ68 entry or part of it): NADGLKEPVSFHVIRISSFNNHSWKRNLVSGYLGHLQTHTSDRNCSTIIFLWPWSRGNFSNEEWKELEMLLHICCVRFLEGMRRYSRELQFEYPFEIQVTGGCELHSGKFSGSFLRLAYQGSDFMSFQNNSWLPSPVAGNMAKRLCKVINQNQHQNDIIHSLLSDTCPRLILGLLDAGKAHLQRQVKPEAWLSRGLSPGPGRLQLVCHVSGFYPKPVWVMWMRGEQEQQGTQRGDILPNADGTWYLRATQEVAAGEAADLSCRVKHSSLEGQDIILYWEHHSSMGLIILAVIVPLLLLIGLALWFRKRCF
Experimental: as §3, §4

[22] = molecular target: T6, human CD1a expressed on cells; test: flow cytometry, HEK-293 cells, 10 µg/ml antibody
Experimental: as §3, §5

[23] = molecular target: T7, Cynomolgus monkey CD1a expressed on …; test: flow cytometry, HEK-293 cells, 10 µg/ml antibody
Experimental: as §3, §4

[24] = molecular target: T6, human CD1a expressed on cells; test: flow cytometry, HEK-293 cells, 0.1 µg/ml antibody
Experimental: as §3, §5

[25] = molecular target: T7, Cynomolgus monkey CD1a expressed on …; test: flow cytometry, HEK-293 cells, 0.1 µg/ml antibody
Experimental: as §3, §4

[26] = molecular target: T7, Cynomolgus monkey CD1a expressed on …; test: flow cytometry, HEK-293 cells, 0.01 µg/ml antibody
Experimental: as §3, §4

[27] = molecular target: T5, human CD1a protein (pool B); test: SPR (Biacore T200), antibody captured, human CD1a titrated, heterogeneous ligand model (KD)
Experimental: (§6) The affinity of the purified antibodies to human CD1a was assessed using a Biacore T200 instrument (GE Healthcare) by capturing the antibody to an immobilized anti-species IgG F(ab′)2 followed by titration of human CD1a. Affinipure Goat anti-species IgG-F(ab′)2 fragment specific (Jackson ImmunoResearch) was immobilized on a CM5 Sensor Chip (GE Healthcare) via amine coupling chemistry to a capture level of ˜5000 response units (RUs). HBS-EP+ buffer (10 mM HEPES pH 7.4, 0.15 M NaCl, 3 mM EDTA, 0.05% Surfactant P20, GE Healthcare) was used as the running buffer with a flow rate of 10 μL/min. A 10 μL injection of test antibody at 0.5 μg/mL was used for capture by the immobilized Goat Anti-species Fab.
(§7) Affinity was required to be <100 nM to be considered for progression.

[28] = molecular target: T5, human CD1a protein (pool B); test: SPR (Biacore T200), antibody captured, human CD1a titrated, heterogeneous ligand model (ka)
Experimental: as §6, §7

[29] = molecular target: T5, human CD1a protein (pool B); test: SPR (Biacore T200), antibody captured, human CD1a titrated, heterogeneous ligand model (kd)
Experimental: as §6
(§8) The surface was regenerated between cycles by injection of 2×10 μL of 40 mM HCl, interspersed by a 10 μL injection of 5 mM NaOH at flowrate of 10 μL/min. Background subtraction binding curves were analyzed using the Biacore T200 evaluation software following standard procedures. Kinetic parameters were determined from the fitting algorithm. This assay was performed at the clone supernatant and purified antibody stage.
as §7

[30] = molecular target: T5, human CD1a protein (pool B); test: SPR (Biacore T200), antibody captured, human CD1a titrated, heterogeneous ligand model (KD2)
Experimental: as §6, §8, §7

[31] = molecular target: T5, human CD1a protein (pool B); test: SPR (Biacore T200), antibody captured, human CD1a titrated, heterogeneous ligand model (ka 2)
Experimental: as §6, §8, §7

[32] = molecular target: T5, human CD1a protein (pool B); test: SPR (Biacore T200), antibody captured, human CD1a titrated, heterogeneous ligand model (kd 2)
Experimental: as §6, §8, §7

Chain of Chinese variant CD1a protein (human) (P06126 18-295, change not shown): as the sequence (P06126 18-295 limits assumed) above

B1: 16 (VR11834) (antibody, V domains shown)
VH: EVQLVESGGGLVKPGGSLKLSCAASGFTFSNYAMSWVRQTPEKRLEWVAAINSNGGSAYYPDTVKDRFTISRDNAKNTLYLQMSSLRSEDTALYYCARRFYYDYGWFAYWGQGTLVTVSS
VL: DIVLTQSPASLSASVGETVTITCRASENIDSYLAWYQQKQGKSPQLLVYAATLLADGVPSRFSGSGSGTQYSLKINSLQSEDVARYYCQHYYSSPWTFGGGTKLEIK
notes: also called OX16; antibody 16
Optical Density (OD) [1]: 1.35 OD
Optical Density (OD) [2]: 1.44 OD
Optical Density (OD) [3]: 1.3 OD
Optical Density (OD) [4]: 1.01 OD
Optical Density (OD) [5]: 0.58 OD
Optical Density (OD) [6]: 0.49 OD
binding result [7]: no binding
binding result [8]: no binding
binding result [9]: no binding
Optical Density (OD) [10]: 0.59 OD
Optical Density (OD) [11]: 0.7 OD
Optical Density (OD) [12]: 0.57 OD
Optical Density (OD) [13]: 0.46 OD
Fluorescence Intensity Geomean (normalized to background) [14]: 10.1 fold over background
Fluorescence Intensity Geomean (normalized to background) [15]: 7 fold over background
Fluorescence Intensity Geomean (normalized to background) [16]: 10.2 fold over background
Fluorescence Intensity Geomean (normalized to background) [17]: 15 fold over background
Fluorescence Intensity Geomean (normalized to background) [18]: 7.5 fold over background
Fluorescence Intensity Geomean (normalized to background) [19]: 19.6 fold over background
Fluorescence Intensity Geomean (normalized to background) [20]: 14.4 fold over background
Fluorescence Intensity Geomean (normalized to background) [21]: 7.6 fold over background
Fluorescence Intensity Geomean (normalized to background) [22]: 10.2 fold over background
Fluorescence Intensity Geomean (normalized to background) [23]: 8.8 fold over background
Fluorescence Intensity Geomean (normalized to background) [24]: 12.9 fold over background
Fluorescence Intensity Geomean (normalized to background) [25]: 8.5 fold over background
Fluorescence Intensity Geomean (normalized to background) [26]: 6.9 fold over background
Kd [27]: 0.392 nM
kon [28]: 1.86e+06 M⁻¹ s⁻¹
koff [29]: 0.000729 s⁻¹
Kd [30]: 12.8 nM
kon [31]: 514000 M⁻¹ s⁻¹
koff [32]: 0.00658 s⁻¹
